# Reference: patent publication US20230212319A1, “NOVEL ANTIGEN BINDING DOMAINS AND SYNTHETIC ANTIGEN RECEPTORS INCORPORATING THE SAME” (University of Southern California, priority 2020, published 2023)
# B1: 22164 (protein)
# chain: MALPVTALLLPLALLLHAARPDIQMTQSPSSLSASVGDRVTITCKASDHINNWLAWYQQKPGQAPKLLIYGATTLETGVPSRFSGSGSGTDYTLTISSLQPEDFATYYCQQSWNTPWTFGQGTKLEIKRLEDLKNVFPPEVAVFEPSEAEISHTQKATLVCLATGFYPDHVELSWWVNGKEVHSGVCTDPQPLKEQPALNDSRYCLSSRLRVSATFWQNPRNHFRCQVQFYGLSENDEWTQDRAKPVTQIVSAEAWGRADCGFTSESYQQGVLSATILYEILLGKATLYAVLVSALVLMAMVKRKDSRGRAKRSGSGATNFSLLKQAGDVEENPGPTSATMDWIWRILFLVGAATGAHSGPEVQLVESGGGLVQAGGSLRLSCAASGSVFSGNVMGWYRQAPGKEREWVAAIASGGSIYYRDSVKGRFTISRDNAKNTVYLQMNSLKPEDTAVYYCNSHPPTLPYWGLGTQVTVSSGSGGGGSGGGGSGGGGSFEQVQLQQPGAELVKPGASVKMSCKASGYAFSSYWINWMKQKPGQGLEWIGQIYPGDGDTNYNGKFKGRATLTADTSSSTAYMQLSSLTSEDSAVYFCARSITTVVGCAMDYWGQGTSVTVSSTRIQNPDPAVYQLRDSKSSDKSVCLFTDFDSQTNVSQSKDSDVYITDKCVLDMRSMDFKSNSAVAWSNKSDFACANAFNNSIIPEDTFFPSPESSCDVKLVEKSFETDTNLNFQNLSVIGFRILLLKVAGFNLLMTLRLWSSRAKRSGSGVKQTLNFDLLKLAGDVESNPGPSRGHMTEYKPTVRLATRDDVPRAVRTLAAAFADYPATRHTVDPDRHIERVTELQELFLTRVGLDIGKVWVADDGAAVAVWTTPESVEAGAVFAEIGPRMAELSGSRLAAQQQMEGLLAPHRPKEPAWFLATVGVSPDHQGKGLGSAVVLPGVEAAERAGVPAFLETSAPRNLPFYERLGFTVTADVEVPEGPRTWCMTRKPGA
# B2: SEQ ID NO: 22292: D domain (Afo3) binding a p26 domain, attached to the N-terminus of the vL fragment of a hu-mROO5-1 based SIR (protein)
# chain: MALPVTALLLPLALLLHAARPACMGSWFEFYDRLNAIDARLWALGGSEAELAAFEKEIAAFESELQAYKGKGNPEVENLRVHAAAIREWLQAYRHNGTGGGGSGGGGSGGGGSEFDIQMTQSPSSLSASVGDRVTITCKASDHINNWLAWYQQKPGQAPKLLIYGATTLETGVPSRFSGSGSGTDYTLTISSLQPEDFATYYCQQSWNTPWTFGQGTKLEIKRLEDLKNVFPPEVAVFEPSEAEISHTQKATLVCLATGFYPDHVELSWWVNGKEVHSGVCTDPQPLKEQPALNDSRYCLSSRLRVSATFWQNPRNHFRCQVQFYGLSENDEWTQDRAKPVTQIVSAEAWGRADCGFTSESYQQGVLSATILYEILLGKATLYAVLVSALVLMAMVKRKDSRGRAKRSGSGATNFSLLKQAGDVEENPGPTSMDWIWRILFLVGAATGAHSFEQVQLQQPGAELVKPGASVKMSCKASGYAFSSYWINWMKQKPGQGLEWIGQIYPGDGDTNYNGKFKGRATLTADTSSSTAYMQLSSLTSEDSAVYFCARSITTVVGCAMDYWGQGTSVTVSSTRIQNPDPAVYQLRDSKSSDKSVCLFTDFDSQTNVSQSKDSDVYITDKCVLDMRSMDFKSNSAVAWSNKSDFACANAFNNSIIPEDTFFPSPESSCDVKLVEKSFETDTNLNFQNLSVIGFRILLLKVAGFNLLMTLRLWSSRAKRSGSGVKQTLNFDLLKLAGDVESNPGPSRGHMTEYKPTVRLATRDDVPRAVRTLAAAFADYPATRHTVDPDRHIERVTELQELFLTRVGLDIGKVWVADDGAAVAVWTTPESVEAGAVFAEIGPRMAELSGSRLAAQQQMEGLLAPHRPKEPAWFLATVGVSPDHQGKGLGSAVVLPGVEAAERAGVPAFLETSAPRNLPFYERLGFTVTADVEVPEGPRTWCMTRKPGA
# B3: 22292 (protein)
# chain: MALPVTALLLPLALLLHAARPACMGSWFEFYDRLNAIDARLWALGGSEAELAAFEKEIAAFESELQAYKGKGNPEVENLRVHAAAIREWLQAYRHNGTGGGGSGGGGSGGGGSEFDIQMTQSPSSLSASVGDRVTITCKASDHINNWLAWYQQKPGQAPKLLIYGATTLETGVPSRFSGSGSGTDYTLTISSLQPEDFATYYCQQSWNTPWTFGQGTKLEIKRLEDLKNVFPPEVAVFEPSEAEISHTQKATLVCLATGFYPDHVELSWWVNGKEVHSGVCTDPQPLKEQPALNDSRYCLSSRLRVSATFWQNPRNHFRCQVQFYGLSENDEWTQDRAKPVTQIVSAEAWGRADCGFTSESYQQGVLSATILYEILLGKATLYAVLVSALVLMAMVKRKDSRGRAKRSGSGATNFSLLKQAGDVEENPGPTSMDWIWRILFLVGAATGAHSFEQVQLQQPGAELVKPGASVKMSCKASGYAFSSYWINWMKQKPGQGLEWIGQIYPGDGDTNYNGKFKGRATLTADTSSSTAYMQLSSLTSEDSAVYFCARSITTVVGCAMDYWGQGTSVTVSSTRIQNPDPAVYQLRDSKSSDKSVCLFTDFDSQTNVSQSKDSDVYITDKCVLDMRSMDFKSNSAVAWSNKSDFACANAFNNSIIPEDTFFPSPESSCDVKLVEKSFETDTNLNFQNLSVIGFRILLLKVAGFNLLMTLRLWSSRAKRSGSGVKQTLNFDLLKLAGDVESNPGPSRGHMTEYKPTVRLATRDDVPRAVRTLAAAFADYPATRHTVDPDRHIERVTELQELFLTRVGLDIGKVWVADDGAAVAVWTTPESVEAGAVFAEIGPRMAELSGSRLAAQQQMEGLLAPHRPKEPAWFLATVGVSPDHQGKGLGSAVVLPGVEAAERAGVPAFLETSAPRNLPFYERLGFTVTADVEVPEGPRTWCMTRKPGA
# B4: 4090 (protein)
# chain: MALPVTALLLPLALLLHAARPDIQMTQSPSSLSASVGDRVTITCKASDHINNWLAWYQQKPGQAPKLLIYGATTLETGVPSRFSGSGSGTDYTLTISSLQPEDFATYYCQQSWNTPWTFGQGTKLEIKRLEDLKNVFPPEVAVFEPSEAEISHTQKATLVCLATGFYPDHVELSWWVNGKEVHSGVCTDPQPLKEQPALNDSRYCLSSRLRVSATFWQNPRNHFRCQVQFYGLSENDEWTQDRAKPVTQIVSAEAWGRADCGFTSESYQQGVLSATILYEILLGKATLYAVLVSALVLMAMVKRKDSRGRAKRSGSGATNFSLLKQAGDVEENPGPTSMDWIWRILFLVGAATGAHSGPQVQLQESGGGLAQAGGSLRLSCAASGRTFSMGWFRQAPGKEREFVAAITYSGGSPYYASSVRGRFTISRDNAKNTVYLQMNSLKPEDTAVYYCAANPTYGSDWNAENWGQGTQVTVSSGSGGGGSGGGGSGGGGSFEQVQLQQPGAELVKPGASVKMSCKASGYAFSSYWINWMKQKPGQGLEWIGQIYPGDGDTNYNGKFKGRATLTADTSSSTAYMQLSSLTSEDSAVYFCARSITTVVGCAMDYWGQGTSVTVSSTRIQNPDPAVYQLRDSKSSDKSVCLFTDFDSQTNVSQSKDSDVYITDKCVLDMRSMDFKSNSAVAWSNKSDFACANAFNNSIIPEDTFFPSPESSCDVKLVEKSFETDTNLNFQNLSVIGFRILLLKVAGFNLLMTLRLWSSRAKRSGSGVKQTLNFDLLKLAGDVESNPGPSRGHMTEYKPTVRLATRDDVPRAVRTLAAAFADYPATRHTVDPDRHIERVTELQELFLTRVGLDIGKVWVADDGAAVAVWTTPESVEAGAVFAEIGPRMAELSGSRLAAQQQMEGLLAPHRPKEPAWFLATVGVSPDHQGKGLGSAVVLPGVEAAERAGVPAFLETSAPRNLPFYERLGFTVTADVEVPEGPRTWCMTRKPGA
# modifications: Synthetic Polynucloetide
# What was measured:
# [1] = test system: L428 cells; test: JNG assay, co-culture with L428 cells; assay type: cell-based
# Experimental: Cellular supernatant is collected and assayed for the induction of cytokines (e.g., IL2).
# JNG (Jurkat cells expressing EGFP under an NFAT promoter) were infected with lentiviral vectors encoding different single chain and multi-chain SARs by spinfection in the presence of 8 µg/ml of Polybrene® (Sigma, Catalog no. H9268). The Jurkat-NFAT-GFP cells are engineered in such a way that the IL-2 promoter, which carries NFAT binding sites, is cloned upstream of the GFP gene. These cells have been used to study signaling via TCR and CAR. The different SARs were stably expressed in Jurkat NFAT-GFP cells by lentiviral mediated gene transfer, followed by selection with puromycin or blasticidin. No drug selection was used in case the construct lacked an antibiotic resistance gene. The SAR-expressing Jurkat-NFAT-GFP cells were cocultured with the target cells at E:T ratio of approximately 1:2 for approximately 4 hours to 18 hours. When the interaction between SIRs and their target antigen results in activation of the NFAT pathway, GFP expression is induced. […] GFP expression was monitored by FACS analysis. The Jurkat-NFAT-GFP (parental) cells were used as control. The structure of different constructs can be determined based on their names. […] The sequence of the other constructs in the table can be similarly determined from their names and by referring to the different Tables of this disclosure that provide the names and SEQ ID NO of the different modules. Alternatively, the composition and modular architecture of the different SAR constructs can be determined from their sequences by bioinformatics tools, including using nucleic acid and amino acids homology searches. […] The signs +/-, +, 2+ etc. after the name of the cell lines indicate the relative degree of positivity on the Jurkat-NFAT-GFP assay as measured by the % GFP positive cells after culture of the SAR expressing Jurkat-NFAT-GFP cells with that cell line above the % GFP cells observed in parental Jurkat NFAT-GFP cells serving as controls. […]
# [2] = test system: DAUDI (CD20+) cells; assay type: cell-based
# [3] = test system: RAJI cells; test: JNG (Jurkat NFAT-GFP) cells expressing SAR: GFP induction on co-culture with RAJI
# [4] = test system: RS411 cells; assay type: cell-based
molecule,measurement,setting,value
B1,NFAT-GFP ASSAY: L428,[1]; co-culture with L428,"3+ (refer to approximately 5%, 10%, 20%, 30%, 40% and 50% GFP positive cells)"
B2,GFP induction,"[1]; L428 cells (CD123+), only in the presence of SAR adaptor bc40-p26-CD123-cg06 (SEQ ID NO: 23120)",robust induction of GFP
B3,NFAT-GFP ASSAY: L428 with bc40-p26-CD123-cg06,[1]; L428 in presence of SAR adaptor bc40-p26-CD123-cg06,+3
B4,"GFP induction (JNG-GFP induction assay), DAUDI",[2],highly positive
same,"GFP induction (JNG-GFP induction assay), RAJI WT",[3],positive
same,"GFP induction (JNG-GFP induction assay), RS;411",[4],highly positive
